Measured values taken from the supplement of paper PMC7877785.
± gives the uncertainty stated by the source.

Experiment: self-splicing fitness, log relative to wild type (ln ratio); higher = more splicing; Tetrahymena group I intron in knt gene, E. coli kanamycin selection, DiMSum; sequences stand for … in CUCUCU…GGAGGGAAAAGUUAUCAGGCAUGCACCUGGUAGCUAGUCUUUAAACCAAUAGAUUGCAUCGGUUUAAAAGGCAAGACCGUCAAAUUGCGGGAAAGGGGUCAACAGCCGUUCAGUACCAAGUCUCAGGGGAAACUUUGAGAUGGCCUUGCAAAGGGUAUGGUAAUAAGCUGACGGACAUGGUCCUAACCACGCAGCCAAGUCCUAAGUCAACAGAUCUUCUGUUGAUAUGGAUGCAGUUCACAGACUAAAUGUCGGUCGGGGAAGAUGUAUUCUUCUCAUAAGAUAUAGUCGGACCUCUCCUUAAUGGGAGCUAGCGGAUGAAGUGAUGCAACACUGGAGCCGCUGGGAACUAAUUUGUAUGCGAAAGUAUAUUGAUUAGUUUUGGAGUACUCGUGGUCG
Method in brief: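 Fitness was computed with DiMSum as the error-weighted combination of replicate fold changes, kanamycin versus none, each normalised to wild type. The library randomised all eight intron nucleotides of the P1ex region, with the intron placed in the knt kanamycin-resistance gene on pET-22b(+) in E. coli BL21(DE3). Six replicate transformations were grown overnight at 37°C or 30°C on LB agar with or without 25 μg/mL kanamycin, plus 100 μg/mL carbenicillin, 50 μM IPTG and 0.2% rhamnose. Pooled colonies were amplicon-sequenced on an Illumina HiSeq 2500.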

Row | Sequence | self-splicing fitness (ln) (30 °C) | self-splicing fitness (ln) (37 °C)
1 | CAAUAGCAAUAUUACGAUGU | -3.19 ± 0.14 | -2.32 ± 0.2
2 | CAAUAGCAAUAUUACGCACG | -1.01 ± 0.19 | -1.12 ± 0.17
3 | CAAUAGCAAUAUUACGCAGG | -1.75 ± 0.13 | -0.433 ± 0.11
4 | CAAUAGCAAUAUUACGCCGG | 0.0303 ± 0.12 | 0.077 ± 0.15
5 | CAAUAGCAAUAUUACGGAAG | -1.36 ± 0.074 | -0.459 ± 0.09
6 | CAAUAGCAAUAUUACGGACG | -0.294 ± 0.058 | 0.146 ± 0.075
7 | CAAUAGCAAUAUUACGGCGU | -2.07 ± 0.11 | -0.986 ± 0.12
8 | CAAUAGCAAUAUUACGGGCG | 0.548 ± 0.093 | 0.28 ± 0.11
9 | CAAUAGCAAUAUUACGGGGA | -3.12 ± 0.39 | -2.61 ± 0.24
10 | CAAUAGCAAUAUUACGGGUU | -4.25 ± 0.2 | -2.31 ± 0.14
11 | CAAUAGCAAUAUUACGUAUG | -1.66 ± 0.12 | -1.7 ± 0.12
12 | CAAUAGCAAUAUUACGUCCA | -2.87 ± 0.29 | -2.25 ± 0.25
13 | CAAUAGCAAUAUUACGUCUC | -2.8 ± 0.18 | -3.4 ± 0.33
14 | CAAUAGCAAUAUUACGUGUA | -3.98 ± 0.18 | -2.29 ± 0.11
15 | CAAUAGCAAUAUUACGUUAG | -1.44 ± 0.057 | -0.481 ± 0.074
16 | CAAUAGCAAUAUUACGUUGU | -3.27 ± 0.14 | -2.12 ± 0.17
17 | CACAAGCAAUAUUACGAAUA | -2.08 ± 0.27 | -2.71 ± 0.23
18 | CACAAGCAAUAUUACGAAUU | -3.63 ± 0.26 | -2.75 ± 0.21
19 | CACAAGCAAUAUUACGACGU | -2.15 ± 0.086 | -0.614 ± 0.077
20 | CACAAGCAAUAUUACGACUC | -1.97 ± 0.11 | -0.998 ± 0.12
21 | CACAAGCAAUAUUACGAGUU | -2.91 ± 0.11 | -1.13 ± 0.089
22 | CACAAGCAAUAUUACGAUAG | -0.655 ± 0.046 | 0.242 ± 0.062
23 | CACAAGCAAUAUUACGAUAU | -3.34 ± 0.21 | -2.52 ± 0.15
24 | CACAAGCAAUAUUACGAUCC | -2.35 ± 0.21 | -1.45 ± 0.23

Row | Sequence | self-splicing fitness (ln) (30 °C) | self-splicing fitness (ln) (37 °C)
25 | CACAAGCAAUAUUACGCAAU | -3.31 ± 0.23 | -3.31 ± 0.26
26 | CACAAGCAAUAUUACGCACC | -3.98 ± 0.37 | -2.4 ± 0.3
27 | CACAAGCAAUAUUACGCCAA | -2.76 ± 0.27 | -2.01 ± 0.21
28 | CACAAGCAAUAUUACGCCAG | -1 ± 0.08 | -1.09 ± 0.11
29 | CACAAGCAAUAUUACGCCUA | -1.01 ± 0.091 | -0.204 ± 0.085
30 | CACAAGCAAUAUUACGCUGG | -4.18 ± 0.23 | -1.74 ± 0.14
31 | CACAAGCAAUAUUACGCUUC | -3.67 ± 0.18 | -2.59 ± 0.27
32 | CACAAGCAAUAUUACGGAAC | -4.35 ± 0.24 | -3.71 ± 0.25
33 | CACAAGCAAUAUUACGGACU | -2.54 ± 0.14 | -2.11 ± 0.14
34 | CACAAGCAAUAUUACGGCAA | -2.21 ± 0.1 | -1.55 ± 0.089
35 | CACAAGCAAUAUUACGGGGG | -3.12 ± 0.11 | -2.1 ± 0.11
36 | CACAAGCAAUAUUACGGUGC | -3.25 ± 0.2 | -2.72 ± 0.24
37 | CACAAGCAAUAUUACGUAAU | -3.79 ± 0.14 | -1.65 ± 0.1
38 | CACAAGCAAUAUUACGUAUU | -3.81 ± 0.17 | -2.66 ± 0.15
39 | CACAAGCAAUAUUACGUCUG | -1.34 ± 0.07 | -0.0931 ± 0.074
40 | CACAAGCAAUAUUACGUGCG | -2.32 ± 0.098 | -0.908 ± 0.082
41 | CACAAGCAAUAUUACGUUUA | -2.95 ± 0.15 | -1.95 ± 0.13
42 | CACCAGCAAUAUUACGAAAA | -3.1 ± 0.2 | -2.33 ± 0.2
43 | CACCAGCAAUAUUACGAAGC | -3.27 ± 0.15 | -2 ± 0.14
44 | CACCAGCAAUAUUACGAAGG | -1.1 ± 0.046 | -0.304 ± 0.077
45 | CACCAGCAAUAUUACGACGA | -2.13 ± 0.14 | -1.54 ± 0.12
46 | CACCAGCAAUAUUACGACUA | -0.763 ± 0.12 | -1.3 ± 0.17
47 | CACCAGCAAUAUUACGAUAU | -3.22 ± 0.17 | -2.46 ± 0.2
48 | CACCAGCAAUAUUACGAUCU | -4.3 ± 0.23 | -2.43 ± 0.15

Row | Sequence | self-splicing fitness (ln) (30 °C) | self-splicing fitness (ln) (37 °C)
49 | CACCAGCAAUAUUACGAUGC | -2.96 ± 0.13 | -2.06 ± 0.14
50 | CACCAGCAAUAUUACGAUUC | -2.18 ± 0.094 | -2.32 ± 0.18
51 | CACCAGCAAUAUUACGCAAG | -0.716 ± 0.093 | -0.12 ± 0.11
52 | CACCAGCAAUAUUACGCAGA | -3.13 ± 0.13 | -2.57 ± 0.13
53 | CACCAGCAAUAUUACGCGCU | -3.42 ± 0.14 | -2.59 ± 0.16
54 | CACCAGCAAUAUUACGCUGA | -3.31 ± 0.17 | -2.68 ± 0.15
55 | CACCAGCAAUAUUACGCUUA | -2.24 ± 0.09 | -1.23 ± 0.083
56 | CACCAGCAAUAUUACGGCAU | -2.64 ± 0.066 | -0.735 ± 0.069
57 | CACCAGCAAUAUUACGGCGU | -2.28 ± 0.097 | -0.886 ± 0.11
58 | CACCAGCAAUAUUACGGGAC | -4.05 ± 0.13 | -2.05 ± 0.1
59 | CACCAGCAAUAUUACGGGUG | -3.87 ± 0.15 | -2.26 ± 0.15
60 | CACCAGCAAUAUUACGGUCG | -1.28 ± 0.062 | -0.351 ± 0.069
61 | CACCAGCAAUAUUACGGUCU | -1.44 ± 0.044 | -1.04 ± 0.057
62 | CACCAGCAAUAUUACGGUUA | -0.251 ± 0.068 | -0.0422 ± 0.09
63 | CACCAGCAAUAUUACGUAAU | -2.63 ± 0.078 | -1.89 ± 0.097
64 | CACCAGCAAUAUUACGUACA | -3.16 ± 0.17 | -1.59 ± 0.13
65 | CACCAGCAAUAUUACGUAUC | -3.55 ± 0.14 | -2.99 ± 0.19
66 | CACCAGCAAUAUUACGUAUG | -0.556 ± 0.041 | -0.105 ± 0.055
67 | CACCAGCAAUAUUACGUCCG | -0.0929 ± 0.051 | 0.19 ± 0.071
68 | CACCAGCAAUAUUACGUGCC | -3.42 ± 0.27 | -1.27 ± 0.46
69 | CACCAGCAAUAUUACGUGUA | -2.09 ± 0.065 | -0.896 ± 0.069
70 | CACCAGCAAUAUUACGUUGA | -4.33 ± 0.31 | -2.1 ± 0.13
71 | CACCAGCAAUAUUACGUUUU | -3.95 ± 0.15 | -3.22 ± 0.18
72 | CACGAGCAAUAUUACGAAAC | -2.02 ± 0.36 | -1.68 ± 0.4

Row | Sequence | self-splicing fitness (ln) (30 °C) | self-splicing fitness (ln) (37 °C)
73 | CACGAGCAAUAUUACGAAGG | -3.2 ± 0.19 | -2.01 ± 0.26
74 | CACGAGCAAUAUUACGACAU | -3.645 ± 0.024 | -2.92 ± 0.04
75 | CACGAGCAAUAUUACGACCU | -2.18 ± 0.17 | -2.27 ± 0.27
76 | CACGAGCAAUAUUACGAGCC | -3.12 ± 0.31 | -3.55 ± 0.47
77 | CACGAGCAAUAUUACGAGCU | -4.14 ± 0.35 | -3.33 ± 0.39
78 | CACGAGCAAUAUUACGAGUG | -3.34 ± 0.17 | -1.83 ± 0.18
79 | CACGAGCAAUAUUACGAUAA | -3.63 ± 0.32 | -2.32 ± 0.28
80 | CACGAGCAAUAUUACGAUAU | -2.64 ± 0.15 | -2.19 ± 0.28
81 | CACGAGCAAUAUUACGCAGC | – | -1.29 ± 0.35
82 | CACGAGCAAUAUUACGCCAC | -2.97 ± 0.38 | -1.02 ± 0.34
83 | CACGAGCAAUAUUACGCCAG | -3.4 ± 0.27 | -2.95 ± 0.28
84 | CACGAGCAAUAUUACGCGGA | -3.61 ± 0.37 | -3.37 ± 0.4
85 | CACGAGCAAUAUUACGCUUC | -3.96 ± 0.24 | -3.25 ± 0.3
86 | CACGAGCAAUAUUACGGAAU | -2.85 ± 0.25 | -1.67 ± 0.23
87 | CACGAGCAAUAUUACGGCUC | -2.71 ± 0.29 | -1.6 ± 0.28
88 | CACGAGCAAUAUUACGUAAC | -2.41 ± 0.27 | –
89 | CACGAGCAAUAUUACGUCCG | -1.34 ± 0.092 | -0.226 ± 0.096
90 | CACGAGCAAUAUUACGUUAC | -4.19 ± 0.36 | -1.25 ± 0.23
91 | CACGAGCAAUAUUACGUUGC | -3.91 ± 0.24 | -2.14 ± 0.21
92 | CACUAGCAAUAUUACGACAA | -3.16 ± 0.37 | -2.06 ± 0.29
93 | CACUAGCAAUAUUACGAGCA | -3.42 ± 0.18 | -0.879 ± 0.11
94 | CACUAGCAAUAUUACGAGGC | -4.08 ± 0.42 | -2.38 ± 0.2
95 | CACUAGCAAUAUUACGAUUA | -1.21 ± 0.21 | -2.44 ± 0.28
